The target of this test is recombinant tubulin lacking the β-tubulin CTT, polymerised into microtubules (S. cerevisiae | human) (UniProt P09733). Kind of test: TIRF microscopy of single fluorescent molecules on surface-held microtubules.

In publication doi:10.1101/027631 one finds reduction of the frequency of processive movement relative to WT MTs data, which are given here for one substance.

Consider “dynein-dynactin-BicD2 (DDB) complex (from UniProt Q921C5 25-400; A0A287B8J2 1-1281)”, for which the reduction of the frequency of processive movement relative to WT MTs is 20%.
